From publication PMC2688732 come the findings set out here.

The assay has as its target C-reactive protein (CRP) (human) (UniProt P02741). The assay is described as follows: SPR. Background: SPR reads the build-up and loss of mass on a sensor chip optically.
Sequence of UniProt P02741 (P02741 19-224): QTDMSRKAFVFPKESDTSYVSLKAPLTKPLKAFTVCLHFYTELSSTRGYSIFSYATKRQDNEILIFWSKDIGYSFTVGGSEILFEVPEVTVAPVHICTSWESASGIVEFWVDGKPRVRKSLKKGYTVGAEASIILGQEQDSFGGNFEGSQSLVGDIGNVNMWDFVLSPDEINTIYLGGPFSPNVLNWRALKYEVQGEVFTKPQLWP

For the substance “extracellular domain of FcγRIIa (from UniProt P12318 34-204) (receptor)”, the Kd (commonly the equilibrium constant for the complex coming apart) stood at 1900 nM.
